Source: patent publication US20180147281A1 (Astellas, published 2018)

B1: fully human anti-human NGF antibody 1-15 (N52D-A)-Fab' fragment (Fab, V domains shown)
VH: QVQLQQWGAGLLKPSETLSLTCAVYGGSFSGYYWSWVRQPPGKGLEWIGEIDHSGSTNNNPSLKSRVTISVGTSKNQFSLKLSSVTAADTAVYYCSRDGGPESGMGAFDIWGQGTMVTVSS
VL: not shown
B2: Tanezumab (antibody, V domains shown)
VH: QVQLQESGPGLVKPSETLSLTCTVSGFSLIGYDLNWIRQPPGKGLEWIGIIWGDGTTDYNSAVKSRVTISKDTSKNQFSLKLSSVTAADTAVYYCARGGYWYATSYYFDYWGQGTLVTVSS
VL: DIQMTQSPSSLSASVGDRVTITCRASQSISNNLNWYQQKPGKAPKLLIYYTSRFHSGVPSRFSGSGSGTDFTFTISSLQPEDIATYYCQQEHTLPYTFGQGTKLEIKR

What was measured:
[1] = target: T1, human NGF (R&D Systems, 256-GF-100/CF) (human, UniProt P01138 122-241, in the competitive ELISAs biotinylated with EZ-Link NHS-PEG4-Biotin (sites not given); unlabelled when immobilized in the binding ELISA); experiment: human NGF-trkA competitive ELISA, trkA immobilized, biotinylated human NGF; geometric average of two runs
T1 construct: Commercial recombinant protein; also called biotinylated human NGF; nerve growth factor

[2] = target: T1, human NGF (R&D Systems, 256-GF-100/CF); experiment: human NGF-trkA competitive ELISA after incubation of the antibody 14 days at pH 6 and 50 C; geometric average of two runs
[3] = target: T1, human NGF (R&D Systems, 256-GF-100/CF); experiment: human NGF-trkA competitive ELISA, IC50 after against before incubation
[4] = target: T1, human NGF (R&D Systems, 256-GF-100/CF); experiment: human NGF-trkA competitive ELISA; geometric average of three tests
[5] = target: T1, human NGF (R&D Systems, 256-GF-100/CF); experiment: ELISA, human NGF immobilized, detection with biotinylated anti-human kappa light-chain antibody; geometric average of two runs

| Binder | IC50 [1] [mg/L] | IC50 [2] [mg/L] | increase rate of the IC50 value after incubation for 14 days at 50 C relative to that before the incubation [3] [%] | IC50 [4] [mg/L] | EC50 [5] [mg/L] |
| --- | --- | --- | --- | --- | --- |
| B1 | 0.3 | 0.47 | 59 |  |  |
| B2 |  |  |  | 0.86 | 0.146 |
